Data on 4 molecules can be found in paper PMC2064084 (The Journal of Cell Biology, 2007).

The series “AUC” deals with the molecule itself. The experiment in a line: AUC.
The series “SEC” deals with the molecule itself. Nature of the series: SEC. Background: In gel filtration, larger molecules generally elute earlier.
Another series addresses T1, C448Y/E442Q Spastin (human, UniProt Q9UBP0 228-616, E442Q | C448Y).
T1 sequence: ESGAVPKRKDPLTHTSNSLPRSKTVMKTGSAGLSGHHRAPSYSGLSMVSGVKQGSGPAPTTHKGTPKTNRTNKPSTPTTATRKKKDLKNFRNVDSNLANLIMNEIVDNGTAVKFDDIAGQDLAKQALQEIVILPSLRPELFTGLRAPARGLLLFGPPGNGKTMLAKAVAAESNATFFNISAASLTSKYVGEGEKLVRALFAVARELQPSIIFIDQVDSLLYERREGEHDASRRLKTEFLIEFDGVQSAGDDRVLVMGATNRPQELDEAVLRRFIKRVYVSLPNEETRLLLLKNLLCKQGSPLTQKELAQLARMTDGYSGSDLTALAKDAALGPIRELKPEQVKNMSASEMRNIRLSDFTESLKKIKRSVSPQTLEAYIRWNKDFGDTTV
Nature of the series: pull-down.

B1: E442Q Spastin (enzyme)
chain: ESGAVPKRKDPLTHTSNSLPRSKTVMKTGSAGLSGHHRAPSYSGLSMVSGVKQGSGPAPTTHKGTPKTNRTNKPSTPTTATRKKKDLKNFRNVDSNLANLIMNEIVDNGTAVKFDDIAGQDLAKQALQEIVILPSLRPELFTGLRAPARGLLLFGPPGNGKTMLAKAVAAESNATFFNISAASLTSKYVGEGEKLVRALFAVARELQPSIIFIDQVDSLLCERREGEHDASRRLKTEFLIEFDGVQSAGDDRVLVMGATNRPQELDEAVLRRFIKRVYVSLPNEETRLLLLKNLLCKQGSPLTQKELAQLARMTDGYSGSDLTALAKDAALGPIRELKPEQVKNMSASEMRNIRLSDFTESLKKIKRSVSPQTLEAYIRWNKDFGDTTV
The stoichiometry N is the number of molecules, sites or subunits per partner or assembly. With B1, in the series “AUC”, the “stoichiometry N” value came to 6.

B2: A457E/E442Q Spastin (enzyme)
chain: ESGAVPKRKDPLTHTSNSLPRSKTVMKTGSAGLSGHHRAPSYSGLSMVSGVKQGSGPAPTTHKGTPKTNRTNKPSTPTTATRKKKDLKNFRNVDSNLANLIMNEIVDNGTAVKFDDIAGQDLAKQALQEIVILPSLRPELFTGLRAPARGLLLFGPPGNGKTMLAKAVAAESNATFFNISAASLTSKYVGEGEKLVRALFAVARELQPSIIFIDQVDSLLCERREGEHDESRRLKTEFLIEFDGVQSAGDDRVLVMGATNRPQELDEAVLRRFIKRVYVSLPNEETRLLLLKNLLCKQGSPLTQKELAQLARMTDGYSGSDLTALAKDAALGPIRELKPEQVKNMSASEMRNIRLSDFTESLKKIKRSVSPQTLEAYIRWNKDFGDTTV
As for B2, in “SEC”, the binding result was “binds”.

B3: GST–tubulin tail (GST fused to the C-terminal 104 amino acids of murine α-tubulin), ending in Tyr (domain or fragment)
chain: not shown
For the molecule B3, in the series with C448Y/E442Q Spastin, the binding result is reported as “binds”.

B4: R451G/E442Q Spastin (enzyme)
chain: ESGAVPKRKDPLTHTSNSLPRSKTVMKTGSAGLSGHHRAPSYSGLSMVSGVKQGSGPAPTTHKGTPKTNRTNKPSTPTTATRKKKDLKNFRNVDSNLANLIMNEIVDNGTAVKFDDIAGQDLAKQALQEIVILPSLRPELFTGLRAPARGLLLFGPPGNGKTMLAKAVAAESNATFFNISAASLTSKYVGEGEKLVRALFAVARELQPSIIFIDQVDSLLCERGEGEHDASRRLKTEFLIEFDGVQSAGDDRVLVMGATNRPQELDEAVLRRFIKRVYVSLPNEETRLLLLKNLLCKQGSPLTQKELAQLARMTDGYSGSDLTALAKDAALGPIRELKPEQVKNMSASEMRNIRLSDFTESLKKIKRSVSPQTLEAYIRWNKDFGDTTV
With B4, the binding result in “SEC” is given as “binds”.
